Experimental data taken from article PMC10728891.

Experiments:
human insulin (human) [1] = biological target: human insulin (human) (UniProt P01308); experiment: AUC; sedimentation velocity, 300 μM insulin, […] m-cresol, […] ZnCl2, 25 mM tris buffer pH 8.0, interference optics
human insulin (human) [2] = biological target: human insulin (human) (UniProt P01308); experiment: circular dichroism, dissociation kinetics after dilution; 600 μM insulin, 250 μM ZnCl2, 25 mM m-cresol, 25 mM tris pH 8 (R6 hexamer), diluted 150-fold into 25 mM tris pH 8.0; ellipticity at 222 nm over 120 s at 25 °C; monoexponential fit; hexamer to monomers

“human insulin (from UniProt P01308 25-54; P01308 90-110) (natural protein)” was tested, and the stoichiometry N (human insulin (human) [1]) was 6 and the t1/2 of hexamer dissociation (human insulin (human) [2]) was 18.4 s.
